Assay results as given in IntAct's records for PubMed 23940353.

B1: ADP-ribosylation factor 6 (Homo sapiens), P62330 (parent)
chain: MGKVLSKIFGNKEMRILMLGLDAAGKTTILYKLKLGQSVTTIPTVGFNVETVTYKNVKFNVWDVGGQDKIRPLWRHYYTGTQGLIFVVDCADRDRIDEARQELHRIINDREMRDAIILIFANKQDLPDAMKPHEIQEKLGLTRIRDRNWYVQPSCATSGDGLYEGLTWLTSNYKS
B2: Cytohesin-3 (Homo sapiens), O43739-2 (parent)
chain: MDEDGGGEGGGVPEDLSLEEREELLDIRRRKKELIDDIERLKYEIAEVMTEIDNLTSVEESKTTQRNKQIAMGRKKFNMDPKKGIQFLIENDLLQSSPEDVAQFLYKGEGLNKTVIGDYLGERDEFNIKVLQAFVELHEFADLNLVQALRQFLWSFRLPGEAQKIDRMMEAFASRYCLCNPGVFQSTDTCYVLSFAIIMLNTSLHNHNVRDKPTAERFIAMNRGINEGGDLPEELLRNLYESIKNEPFKIPEDDGNDLTHTFFNPDREGWLLKLGGRVKTWKRRWFILTDNCLYYFEYTTDKEPRGIIPLENLSIREVEDPRKPNCFELYNPSHKGQVIKACKTEADGRVVEGNHVVYRISAPSPEEKEEWMKSIKASISRDPFYDMLATRKRRIANKK

What was measured:
CYTH3, O43739-2 = variants of: B1; settings: with CYTH3, O43739-2
CYTH1, Q15438-2 = variants of: B1; settings: with CYTH1, Q15438-2
CYTH2, Q99418-2 = variants of: B1; settings: with CYTH2, Q99418-2
arf6_human ARF6, P62330 = variants of: B2; settings: with arf6_human ARF6, P62330

Chain of CYTH2, Q99418-2 (Q99418 other isoform, or with tags, fused parts or gaps): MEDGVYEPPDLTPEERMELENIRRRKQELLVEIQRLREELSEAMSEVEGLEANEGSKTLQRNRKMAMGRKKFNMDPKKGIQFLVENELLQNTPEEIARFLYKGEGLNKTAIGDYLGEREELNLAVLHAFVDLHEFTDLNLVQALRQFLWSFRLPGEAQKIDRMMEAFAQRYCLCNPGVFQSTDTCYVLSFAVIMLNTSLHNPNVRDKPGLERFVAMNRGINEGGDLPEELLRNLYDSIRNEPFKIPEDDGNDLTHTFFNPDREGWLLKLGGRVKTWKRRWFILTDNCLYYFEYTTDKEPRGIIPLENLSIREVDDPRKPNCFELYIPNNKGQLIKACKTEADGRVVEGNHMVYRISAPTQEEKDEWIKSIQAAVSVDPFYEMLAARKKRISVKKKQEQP
Chain of CYTH1, Q15438-2 (Q15438 other isoform, or with tags, fused parts or gaps): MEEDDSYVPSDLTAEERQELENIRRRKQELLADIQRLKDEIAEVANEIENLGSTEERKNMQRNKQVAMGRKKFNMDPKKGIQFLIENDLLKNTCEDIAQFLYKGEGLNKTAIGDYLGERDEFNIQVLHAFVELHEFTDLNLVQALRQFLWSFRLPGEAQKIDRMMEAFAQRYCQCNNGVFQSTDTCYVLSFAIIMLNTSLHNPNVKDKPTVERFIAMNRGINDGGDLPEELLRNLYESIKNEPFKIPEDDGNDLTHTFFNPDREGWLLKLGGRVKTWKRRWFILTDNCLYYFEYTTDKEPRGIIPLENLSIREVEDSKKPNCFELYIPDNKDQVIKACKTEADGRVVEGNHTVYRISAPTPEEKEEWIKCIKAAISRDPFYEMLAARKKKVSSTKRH

| Variant | effect of a mutation on the interaction (CYTH3, O43739-2) | effect of a mutation on the interaction (CYTH1, Q15438-2) | effect of a mutation on the interaction (CYTH2, Q99418-2) | effect of a mutation on the interaction (arf6_human ARF6, P62330) |
| --- | --- | --- | --- | --- |
| Q67L | with no effect | with no effect | with no effect | – |
| L388A | – | – | – | decreasing interaction strength |
| K392A | – | – | – | decreasing interaction strength |
